The text below walks through data of patent US20190202925A1.

Experiment [1] has as its target human TNFR2 on cells (human) (UniProt P20333). The experiment is described as follows: cell-based or functional assay.
The target of experiment [2] is monomeric human TNFR2 extracellular domain (human) (UniProt P20333). Nature of the experiment: BLI (Octet Red 96), Human TNFR2 Kd (1-1).
Chain of monomeric human TNFR2 extracellular domain (human) (P20333 23-257): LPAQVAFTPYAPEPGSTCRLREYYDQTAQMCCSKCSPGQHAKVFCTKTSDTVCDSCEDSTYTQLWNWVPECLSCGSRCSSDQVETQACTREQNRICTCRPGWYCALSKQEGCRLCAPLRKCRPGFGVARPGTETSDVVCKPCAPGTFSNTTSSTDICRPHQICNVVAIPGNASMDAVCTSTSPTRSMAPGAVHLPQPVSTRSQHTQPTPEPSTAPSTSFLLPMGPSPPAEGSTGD

Chain of human TNFR2 on cells (human) (P20333 23-461): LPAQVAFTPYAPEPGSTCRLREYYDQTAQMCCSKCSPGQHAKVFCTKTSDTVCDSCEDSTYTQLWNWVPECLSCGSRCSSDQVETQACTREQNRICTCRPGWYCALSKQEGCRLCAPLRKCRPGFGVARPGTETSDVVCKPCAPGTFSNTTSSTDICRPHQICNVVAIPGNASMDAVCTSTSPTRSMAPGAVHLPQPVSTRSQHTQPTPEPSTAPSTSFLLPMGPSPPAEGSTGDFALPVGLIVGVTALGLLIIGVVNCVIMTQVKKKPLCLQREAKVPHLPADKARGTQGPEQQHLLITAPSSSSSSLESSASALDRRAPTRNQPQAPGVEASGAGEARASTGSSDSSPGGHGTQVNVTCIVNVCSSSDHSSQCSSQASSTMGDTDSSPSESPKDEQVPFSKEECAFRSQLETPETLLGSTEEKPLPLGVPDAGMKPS

B1: SBT-004 (antibody, V domains shown)
VH: EVQLQQSGPEVGRPGSSVKISCKASGYTFTDYIMHWVKQSPGQGLEWIGWVDPEYGSTDYAEKFKKKATLTADTSSNTAYIQLSSLTSEDTATYFCARDDGSYSPFDYWGQGVMVTVSS
VL: DIQMTQSPPSLSASLGDKVTITCQASQNINKYIAWYQQKPGKAPRLLIRYTSTLESGTPSRFSGSGSGRDYSFSISNVESEDIASYYCLQYVNLLTFGAGTKLEIK
In experiment [1], B1 gave an IC50 (µg/mL) (with pre-incubation); rescue of Jurkat H6 cells from 2 ng/mL TNFα, luminescence of 0.09 µg/mL and an IC50 (µg/mL) (without pre-incubation); rescue of Jurkat H6 cells from 2 ng/mL TNFα, luminescence of 0.1 µg/mL.

B2: chimeric SBT-004 Fc null (antibody, part only; not given: light chain and Fc null constant region, V domains shown, part only)
VH: B1 VH
By Kd is commonly meant the concentration at which binding is half-saturated. The low end stands for a tighter complex, the high end for a looser complex. In turn, B2 returned a dissociation constant (Kd) in experiment [2] of 5 nM.
